Reference: patent US12466859B2, “Desmoglein 2 (DSG2) binding proteins and uses therefor” (UNIVERSITY OF WASHINGTON THROUGH ITS CENTER FOR …, priority 2013, dated 2025)

Legend:
[1] = tested on: polarized colon cancer T84 cells; assay: Transepithelial electrical resistance (TEER) on polarized T84 cells; format: cell-based; settings: for Effect on the TEER: added for 1 hour to the apical side of transwell cultures; for TEER compared to JO-1: dimeric affinity-enhanced mutants, TEER at 4 hours
Description: (§1) FIG. 5A-5B. Correlation of reduced DSG2 binding with the ability to open epithelial junctions. FIG. 5A) Transepithelial electrical resistance (TEER) measured on polarized colon cancer T84 cells. Cells were cultured in transwell chambers until the TEER was constant, i.e. tight junctions had formed. A total of 5 μg of dimeric Ad3 fiber knobs in PBS was then added for 1 hour to the apical chamber. TEER was measured at the indicated time points. N=6. For time points 1.5 and 4 hours the difference between JO-1 vs D261N and N186D was significant (p<0.01). The arrows indicate the addition and removal of Ad3 fiber knobs. FIG. 5B) Enhancement of irinotecan therapy. A total of 4×10^6 A549 cells were injected subcutaneously into CB17-SCID/beige mice. Once the tumor reached a volume of ˜100 mm^3 (day 15 after implantation), the mice were injected intravenously with 2 mg/kg JO-1, E299V, N186D, or PBS, followed by an intravenous injection of irinotecan (37.5 mg/kg) one hour later. The treatment was repeated on day 25. N=5. […] The difference between “irinotecan” vs “JO-1+irinotecan” was significant (p<0.01) from day 20 on.
FIG. 9A1-9C. Analysis of dimeric Ad3 fiber knob mutants with increased affinity to DSG2. FIG. 9A1-9A2) Competition of Ad3-GFP virus infection on HeLa cells with dimeric affinity-enhanced mutant Y250F and JO-1 (dimeric wt Ad3 fiber knob). The experimental setting is as described for FIG. 3C. FIG. 9A1) percentage of GFP positive cells. FIG. 9A2) mean fluorescence intensity. N=3. The standard deviation was less than 10%. FIG. 9B1-9B2) Competition of Ad3-GFP virus infection on HeLa cells by Ad3 knob mutants with enhanced DSG2 binding but without dimerization domain. 1.5×10^5 HeLa cells were seeded into 24 well plates. Cells were incubated with the Ad3 knob mutants at the increasing concentrations for one hour at room temperature. 100 pfu/cell of Ad3GFP virus were then added and GFP expression was analyzed 18 hours later. FIG. 9B1) % of GFP+cells; FIG. 9B2) MFI. FIG. 9C) TEER on colon cancer T84 cells. The experimental setting was the same as for FIG. 5A. The TEER at 4 hours is shown. N=3.
Permeability assay. A total of 5×10^5 T84 cells were seeded in 12 mm transwell inserts (PET membrane, with 0.4 μm pore size (Corning, NY) and cultured for >14 days until transepithelial electrical resistance (TEER) was stable. Culture medium was changed every 2-3 days. The cells were exposed to DSG2 ligands (20 μg/ml) in adhesion medium (DMEM, 1% FBS, 2 mM MgCl2, 20 mM HEPES) for 15 min at room temperature and TEER was measured and calculated as described elsewhere (39).

A549 xenograft tumors = assay: Enhancement of irinotecan therapy in A549 xenograft tumors; format: in vivo, CB17-SCID/beige mice; settings: 2 mg/kg i.v. one hour before irinotecan 37.5 mg/kg i.v.; tumor volume
Description: as §1
FIG. 10A-10C. Combination of affinity-enhanced JO-1 versions with chemotherapy. FIG. 10A) Enhancement of irinotecan (I) therapy. The experimental setting was the same as in FIG. 5B. […] N=5. […] Mammary fat pad tumors were established from primary ovarian cancer ovc316 cells. Treatment was started when tumors reached a volume of 100 mm^3. Mice were injected intravenously with 2 mg/kg JO-1 or with 0.5 mg/kg JO-4, followed by an intravenous injection of PEGylated liposomal doxorubicin (PLD) (1 mg/kg) one hour later. Treatment was repeated weekly. […] A total of 4×10^6 TNBC MDA-MB-231 cells were injected into the mammary fat pad of CB17 SCID-beige mice. JO-4 (2 mg/kg) was intravenously injected 1 hour before the application of cetuximab (C) (10 mg/kg, i.p.) and nab-paclitaxel (nab-P) (5 mg/kg, i.v.). Treatment was given weekly. N=10 P<0.01 at day 25 for nab-P+C vs JO-4+nab-P+C.
A549, MDA-MB-231, and ovc316 xenograft tumors were established by injection of the corresponding tumor cells into the mammary fat pad (1:1 with Matrigel) of CB17 mice. TC1-DSG2 tumors were established by subcutaneous injection of TC1-DSG2 cells into DSG2 transgenic mice. JO-0, JO-1, JO-2, or JO-4 were intravenously injected one hour before the application of chemotherapeutic drugs: Irinotecan/Camptosar™ (Pfizer Inc., Groton, CT), PEGylated liposomal doxorubicin/Lipodox™ (Sun Pharmaceuticals IN, India), cetuximab/Erbitux™ (ImClone, Somerville, NJ), nanoparticle albumin conjugated paclitaxel/Abraxane” (Abraxis Biosciences, Summit, NJ). Tumor volumes were measured three times a week. Each treatment group consisted of a minimum of 5 mice.

Molecule	Effect on the TEER [1]	Enhancement of irinotecan therapy (A549 xenograft tumors)	TEER compared to JO-1 [1]
N186D (protein) MKVSALKEKVSALKEKVSALKEKVSALKEKVSALKEGSGGGSGGGSGGGSNSIALKNNTLWTGPKPEANCIIEYGKQNPDSKLTLILVKNGGIVNGYVTLMGASDYVNTLFKDKNVSINVELYFDATGHILPDSSSLKTDLELKYKQTADFSARGFMPSTTAYPFVLPNAGTHNENYIFGQCYYKASDGALFPLEVTVMLNKRLPDSRTSYVMTFLWSLNAGLAPETTQATLITSPFTFSYIREDD	intermediate effects	not significant	–
V239D (protein) MKVSALKEKVSALKEKVSALKEKVSALKEKVSALKEGSGGGSGGGSGGGSNSIALKNNTLWTGPKPEANCIIEYGKQNPDSKLTLILVKNGGIVNGYVTLMGASDYVNTLFKNKNVSINVELYFDATGHILPDSSSLKTDLELKYKQTADFSARGFMPSTTAYPFDLPNAGTHNENYIFGQCYYKASDGALFPLEVTVMLNKRLPDSRTSYVMTFLWSLNAGLAPETTQATLITSPFTFSYIREDD	–	–	significantly higher
K217E+F224S (protein) MKVSALKEKVSALKEKVSALKEKVSALKEKVSALKEGSGGGSGGGSGGGSNSIALKNNTLWTGPKPEANCIIEYGKQNPDSKLTLILVKNGGIVNGYVTLMGASDYVNTLFKNKNVSINVELYFDATGHILPDSSSLKTDLELEYKQTADSSARGFMPSTTAYPFVLPNAGTHNENYIFGQCYYKASDGALFPLEVTVMLNKRLPDSRTSYVMTFLWSLNAGLAPETTQATLITSPFTFSYIREDD	–	–	significantly higher
E299V (protein) MKVSALKEKVSALKEKVSALKEKVSALKEKVSALKEGSGGGSGGGSGGGSNSIALKNNTLWTGPKPEANCIIEYGKQNPDSKLTLILVKNGGIVNGYVTLMGASDYVNTLFKNKNVSINVELYFDATGHILPDSSSLKTDLELKYKQTADFSARGFMPSTTAYPFVLPNAGTHNENYIFGQCYYKASDGALFPLEVTVMLNKRLPDSRTSYVMTFLWSLNAGLAPVTTQATLITSPFTFSYIREDD	intermediate effects	not significant	–
